This assay addresses T1, GST-SicA (Salmonella enterica serovar Typhimurium, UniProt P69066 1-165).
T1 construct: SicA, the chaperone for SipC, Salmonella enterica serovar Typhimurium; source: GST-tagged recombinant protein, purified
The assay can be described thus: pull-down; purified His-SipC-N and derivatives immobilised on Ni-NTA beads, 1 hr at 4°C; GST or GST-SicA added, 2 hrs at 4°C; washed four times in PBS with 1% NP-40; blotted with anti-His and anti-GST. The conditions noted are these: both partners purified.

T1 sequence (P69066 whole entry): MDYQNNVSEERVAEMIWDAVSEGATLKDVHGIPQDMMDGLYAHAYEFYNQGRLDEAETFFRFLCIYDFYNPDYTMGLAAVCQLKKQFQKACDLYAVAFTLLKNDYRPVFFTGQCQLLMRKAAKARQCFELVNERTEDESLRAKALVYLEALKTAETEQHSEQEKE

B1: His-SipC-N (domain or fragment)
chain: MLISNVGINPAAYLNNHSVENSSQTASQSVSAKDILNSIGISSSKVSDLGLSPTLSAPAPGVLTQTPGTITSFLKASIQNTDMNQDLNALANNVTTKANEVVQTQLREQQAEVGKFFDIS
notes: N-terminal region of SipC of Salmonella enterica serovar Typhimurium; also called wild-type SipC-N; source: His-tagged recombinant protein, purified
With B1, the binding result is given as “binds”.

For the origin of these results see PMC3609803, “SipB-SipC Complex Is Essential for Translocon Formation” (PLoS ONE, 2013).
